# Test results as given in paper PMC12796488, “Distinct structural features of Pseudomonas aeruginosa ATP synthase revealed by cryo-electron microscopy” (Nature Communications, 2025).
# B1: P. aeruginosa ATP synthase subunit c (natural protein, Pseudomonas aeruginosa, UniProt Q9HT15 1-85, looked up)
# chain: METVVGLTAIAVALLIGLGALGTAIGFGLLGGKFLEGAARQPEMVPMLQVKMFIVAGLLDAVTMIGVGIALFFTFANPFVGQIAG
# notes: ATP synthase subunit c of Pseudomonas aeruginosa, expressed from the whole operon (atpIBEFHAGDC) plasmid pASH20; A ring of ten copies in the cryo-EM maps; also called c subunit; c-ring; source: E. coli DK8, purified as part of the whole F1Fo complex (digitonin extraction, Talon resin, Superose 6 SEC); copies: 10
# Target: the molecule itself
# Assay: cryo-EM structure; purified F1Fo complex in digitonin; 10 mM MgADP and 230 uM compound #5 added, 1 h on ice before freezing; maps at 2.0-3.0 Å
protein,measurement,value
B1,stoichiometry N,10
